# Experimental data from patent US20260265354A1 (JIANGSU MABWELL HEALTH PHARMACEUTICAL R AND D, published 2026).
# How the values were obtained:
# Experiment in all cases: ELISA, coated antigen, 0 ng/ml antibody (blank control)
# [1] = molecular target: T1, Nectin-like-3 (UniProt Q8N3J6 25-367, limits assumed)
# T1 construct: Bought recombinant protein; also called CADM2; IgSF4D
# T1 sequence (looked up): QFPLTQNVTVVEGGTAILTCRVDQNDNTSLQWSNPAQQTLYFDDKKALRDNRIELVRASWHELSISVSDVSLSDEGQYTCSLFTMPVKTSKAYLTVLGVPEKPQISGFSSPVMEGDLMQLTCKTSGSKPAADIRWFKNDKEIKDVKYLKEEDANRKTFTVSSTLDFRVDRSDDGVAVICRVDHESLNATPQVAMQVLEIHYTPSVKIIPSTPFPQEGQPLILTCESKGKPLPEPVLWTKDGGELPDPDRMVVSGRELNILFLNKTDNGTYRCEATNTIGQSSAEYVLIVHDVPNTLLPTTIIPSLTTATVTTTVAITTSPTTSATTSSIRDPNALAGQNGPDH
# Protocol: (§1) Coating: Nectin-1, Nectin-2, Nectin-3, Nectin-4, Nectin-like-1, Nectin-like-2, Nectin-like-3, Nectin-like-4, and Nectin-like-5 were diluted to 5 μg/ml in coating buffer (carbonate buffer, pH 9.6) respectively. A 96-well plate was coat with 100 μl per well and incubated overnight at 2-8° C.;
# (§2) Sample loading: The plate was taken out, patted dry, and washed twice with 200 μl/well of PBST, then patted dry. The Nectin-4 antibodies prepared in Example 1 (antibody MM11, antibody R012, and antibody R036) were diluted with 1% BSA/PBST to concentrations of 10 μg/ml, 1 μg/ml, 100 ng/ml, and 10 ng/ml, respectively. 1% BSA/PBST solution for dilution was set as a blank control. 100 μl per well was added to the 96-well plate, and incubated at room temperature for 2 hours;
# (§3) Reaction termination and plate reading: 100 μl/well of 1 mol/L H3PO4 was added to terminate the reaction and the plated was read. The absorbances of wells in the plate at 450 nm with 650 nm as reference wavelength were read and recorded as OD_{450 nm-650 nm}.
# [2] = molecular target: T2, Nectin-like-4 (UniProt Q8NFZ8 21-324, limits assumed)
# T2 construct: Bought recombinant protein; also called CADM4; IgSF4C
# T2 sequence (looked up): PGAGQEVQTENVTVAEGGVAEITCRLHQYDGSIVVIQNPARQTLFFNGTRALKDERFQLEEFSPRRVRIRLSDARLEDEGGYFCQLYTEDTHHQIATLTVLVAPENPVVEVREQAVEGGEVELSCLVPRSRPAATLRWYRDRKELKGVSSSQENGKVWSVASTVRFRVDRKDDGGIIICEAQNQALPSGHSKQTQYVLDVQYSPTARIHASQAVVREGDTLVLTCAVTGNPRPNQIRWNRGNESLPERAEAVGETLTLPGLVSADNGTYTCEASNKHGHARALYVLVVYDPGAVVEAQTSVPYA
# Protocol: as §1, §2, §3
# [3] = molecular target: T3, Nectin-like-5 (UniProt P15151 21-343)
# T3 construct: Bought recombinant protein; also called CD155; PVR
# T3 sequence (looked up): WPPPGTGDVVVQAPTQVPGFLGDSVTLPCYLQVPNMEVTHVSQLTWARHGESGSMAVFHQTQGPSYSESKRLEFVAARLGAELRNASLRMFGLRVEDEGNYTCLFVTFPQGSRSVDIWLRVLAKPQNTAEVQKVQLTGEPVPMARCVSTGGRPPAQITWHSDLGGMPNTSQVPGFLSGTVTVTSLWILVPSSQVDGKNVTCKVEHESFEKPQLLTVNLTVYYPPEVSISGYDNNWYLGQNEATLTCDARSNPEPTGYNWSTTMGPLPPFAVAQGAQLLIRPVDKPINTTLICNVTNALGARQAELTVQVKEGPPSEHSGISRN
# Protocol: as §1, §2, §3
# [4] = molecular target: T4, Nectin-1 (UniProt Q15223 31-334, limits assumed)
# T4 construct: Bought recombinant protein; also called CD111; PVRL-1
# T4 sequence (looked up): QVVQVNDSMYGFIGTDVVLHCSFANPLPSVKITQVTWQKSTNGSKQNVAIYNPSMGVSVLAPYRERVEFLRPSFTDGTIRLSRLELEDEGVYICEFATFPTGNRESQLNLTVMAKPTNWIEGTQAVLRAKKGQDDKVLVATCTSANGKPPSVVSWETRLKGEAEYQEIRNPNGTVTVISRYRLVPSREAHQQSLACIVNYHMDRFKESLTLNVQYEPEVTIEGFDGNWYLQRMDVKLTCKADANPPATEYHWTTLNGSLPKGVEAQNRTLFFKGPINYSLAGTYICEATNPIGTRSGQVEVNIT
# Protocol: as §1, §2, §3
# [5] = molecular target: T5, Nectin-3 (UniProt Q9NQS3 58-404, limits assumed)
# T5 construct: Bought recombinant protein; also called CD113; PVRL-3
# Protocol: as §1, §2, §3
# T5 sequence (Q9NQS3 58-404 limits assumed): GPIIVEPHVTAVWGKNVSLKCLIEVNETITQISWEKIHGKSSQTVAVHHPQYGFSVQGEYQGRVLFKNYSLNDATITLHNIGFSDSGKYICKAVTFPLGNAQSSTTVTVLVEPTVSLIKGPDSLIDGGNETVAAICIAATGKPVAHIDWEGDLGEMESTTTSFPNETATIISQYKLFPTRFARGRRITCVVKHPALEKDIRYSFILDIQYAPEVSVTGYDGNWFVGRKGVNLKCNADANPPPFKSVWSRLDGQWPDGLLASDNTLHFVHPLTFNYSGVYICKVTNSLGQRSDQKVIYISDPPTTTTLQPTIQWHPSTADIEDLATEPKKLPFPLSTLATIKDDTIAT
Binder,OD detection value [1],OD detection value [2],OD detection value [3],OD detection value [4],OD detection value [5]
"Antibody MM11 (antibody, mouse IgG1, kappa, V domains shown, Mouse monoclonal antibody from hybridoma; also called Nectin-4 mouse monoclonal antibody MM11; mouse antibody MM11) VH: DVQLQESGPGLVKPSQSLSLTCSVTGYSITSNFYWNWIRQFPGNRLEWMGYISYDGSNNYNPSLKNRISISRDTSKNQFFLKLNSVTTEDTATYYCVRADYWGQGTLVTVSA VL: DTVMTQTPLSLPVSLGDQASISCRSSQSLESSDGHAYLNWYLQKPGQSPQLLIYRVSNRFSGVLHRFSGSGSGTDFTLKISRVEAEDLGVYFCLQFTHVPFTFGSGTKLEIKR",0.027 OD450 nm-650 nm,0.008 OD450 nm-650 nm,0.011 OD450 nm-650 nm,0.005 OD450 nm-650 nm,0.006 OD450 nm-650 nm
"Antibody R012 (antibody, V domains shown, Rabbit monoclonal antibody from phage display; also called Nectin-4 rabbit monoclonal antibody R012; rabbit antibody R012) VH: SKSVEESGGRLVTPGTPLTLTCTVSGFSLSTYAMSWVRQAPGKGLEYIGIISGRGTTYYASWLKGRFTISKTSTTVDLKITSPTTEDTATYFCARDAGISDVYTGYFNLWGQGTLVTVSS VL: QPVLAQLPSASAALGASAKLTCTLSSAHRTYTIAWYQQQQGEAPRYLMMLKSDGSYTKGTGVPDRFSGSSSGADRYLIISSVQAADEADYYCGADDSGGYVFGGGTQLTVTG",0.008 OD450 nm-650 nm,0.008 OD450 nm-650 nm,0.008 OD450 nm-650 nm,0.007 OD450 nm-650 nm,0.008 OD450 nm-650 nm
"Antibody R036 (antibody, V domains shown, Rabbit monoclonal antibody from phage display; also called Nectin-4 rabbit monoclonal antibody R036; rabbit antibody R036) VH: SQSVEESGGRLVTPGTPLTLTCTVSGFSLSSYAMSWVRQAPGKGLEYIGIIGGRGTTYYAIWAKGRFTISKTSTTVDLKITSPTTEDTATYFCARDAGTTYVGTTYVATGYFNLWGQGTLVTVSS VL: QPVLTQPPSASAALGASAKLTCTLSSAHKTYTIAWYQQQQGEAPRYLMILKSDGSYTRGTGVPDRFSGSSSGADRYLIISSVQADDEADYYCGADDSGGYVFGGGTQLTVTG",0.007 OD450 nm-650 nm,0.007 OD450 nm-650 nm,0.008 OD450 nm-650 nm,0.007 OD450 nm-650 nm,0.007 OD450 nm-650 nm
